# Measurements from patent US20220242939A1 (BIOARCTIC, published 2022).
# Where a chain is given by its changes, count along the chain named. Non-standard residues stand in square brackets, D forms with d. No end group written: not given here. Ahx = NCCCCCC(=O)O
# T1: L198 N-terminal neo-epitope peptide LAGQPL-Acp-C (SEQ ID NO:52) conjugated to BSA (human, not fully specified (residue 8); printed as LAGQPL-Acp-C; also: C-terminal Cys conjugated to BSA carrier)
# T1 construct: BSA carrier; also called L198-BSA peptide
# T1 peptide: LAGQPL[Ahx]C
# T2: G200 N-terminal neo-epitope peptide GQPLQE-Acp-C (SEQ ID NO:50) conjugated to BSA (human, not fully specified (residue 8); printed as GQPLQE-Acp-C; also: C-terminal Cys conjugated to BSA carrier)
# T2 construct: also called G200-BSA peptide; G200-peptide
# T2 peptide: GQPLQE[Ahx]C
# B1: 4E6, hybridoma monoclonal antibody (unpurified supernatant) (antibody, V domains shown)
# VH: EVQLVESGGDLVKPGGSLKLSCAASGFTFSSYAMSWVRQSPEKRLEWVAEISGSGSRDHYTDSVTGRFTVSRDNAKNTLYLEMSSLRSEDTAIYYCARQLTGTDYYGTDYWGQGTSVTVSS
# VL: DVLMTQIPLSLPVSLGDQASISCRSSQSIVYSNGNTYLEWYLQRPGQSPKLLIYKVSNRFSGVPDRFSGSGSGTDFTLKISRVEAEDLGVYYCFQGSHLPYTFGGGTKLEIK
# B2: 7C7, hybridoma monoclonal antibody (unpurified supernatant) (antibody, mouse IgG2b, V domains shown)
# VH: EVQLVESGGGLVKPGGSLRLSCAASGFTFSSFAMSWVRQSPERRLEWVAEISRGGGYAFYSDTVTGRFTISRDNARNTLFLEMGSLRSEDTAMYYCSRQLTGTDYYAMDYWGQGTSVTVSS
# VL: B1 VL with M4L, I7T, P12F, S32T, R44K, H98Q, L99V, I111L
# B3: 7B10, hybridoma monoclonal antibody (unpurified supernatant) (antibody, mouse IgG1, V domains shown)
# VH: AVQLVESGGGLVKPGRSLKLSCAASGFTFSSYAMSWVRQFPDKRLDWVAEISSGGGSTNYLDTVTGRFTISRDNAKNTLYLEMNSLRSEDTAMYYCARQLVGTDYYGTDYWGQGTSVTVSS
# VL: B1 VL with I7T, S28N, R44K, L99V
# notes: also called 7610
# B4: 17G4, hybridoma monoclonal antibody (unpurified supernatant) (antibody, mouse IgG1, V domains shown)
# VH: EVQLVESGGGLVKPGGSLKLSCSASGFTFSRYAMSWVRQSPEKRLEWVAEINSGGSYSFYSDTVTGRFTISRDNAKNTLFLEMSSLRSEDTAIYYCARQLTGTDYYGTDYWGQGTSVTVSS
# VL: B1 VL with I7T, L15H, I29L, V30L, R44K, L99V
# B5: 23D5, hybridoma monoclonal antibody (unpurified supernatant) (antibody, mouse IgG1, V domains shown)
# VH: B4 VH with T101S
# VL: B1 VL with I7T, L15H, I29L, V30L, R44K, L99V
# B6: 28F2, hybridoma monoclonal antibody (unpurified supernatant) (antibody, mouse IgG1, V domains shown)
# VH: QIQLVQSGPDLKKPGETVKISCKASGYTFTNYAMHWMKQAPGKALKWMGWINTYTGEPTFADDFKGRFAFSLETSASTAYLQINSLKNEDMATYFCAREGYYDRSHYFDYWGQGTTLTVSS
# VL: DVLMTQTPLSLPVSLGDQASISCRSSLSLVHGDGNTYLEWYLQKPGQSPKLLIYKVSNRFSGVPDRFSGSGSGTDFTLKISRVEAEDLGVYYCLQGSHIPFTFGSGTKLEIK
# B7: 12B1, monoclonal anti-L198 antibody (antibody, IgG2c, V domains shown)
# VH: EVKLEESGGGLVQPGGSMKLSCVASGITFSKYWMNWVRQCPEKGLEWVAQIRLRSDNYATHYAESVKGRFTISRDDSKSSVYLQMNTLRAEDTGIYYCTHHYYGSSGYVDVWGTGTTVTVSS
# VL: DIVMTQSQKFMSTSVGDRVSVTCKASQNVGTNVAWYQQKPGQCPKGMILSASQRYSGVPDRFTGSGFGTEFTLTISNVQSEDLAEYFCQQYNSYPYTFGGGTKLERK
# B8: 15H11, monoclonal anti-L198 antibody (antibody, IgG1, V domains shown)
# VH: B7 VH with S17A, K31N, R54K
# VL: B7 VL with T31N, Q38K, T74I, Q89H
# Target: T3, full-length ApoE in human brain extract from Alzheimer's disease patients (human, UniProt P02649 19-317)
# T3 construct: mature; Endogenous protein on Western blot or in solution (IP); also called ApoE full-length protein
# T3 sequence (P02649 19-317): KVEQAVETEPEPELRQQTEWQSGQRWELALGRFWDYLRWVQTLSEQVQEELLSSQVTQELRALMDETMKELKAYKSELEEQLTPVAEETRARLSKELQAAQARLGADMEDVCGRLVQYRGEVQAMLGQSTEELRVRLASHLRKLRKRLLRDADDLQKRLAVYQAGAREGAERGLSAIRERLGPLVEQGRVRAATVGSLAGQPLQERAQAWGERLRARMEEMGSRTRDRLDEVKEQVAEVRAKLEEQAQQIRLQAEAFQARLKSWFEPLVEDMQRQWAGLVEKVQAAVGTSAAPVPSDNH
# Experiment: Western blot of AD brain RIPA 2% SDS extract; hybridoma supernatant as primary antibody
# Text: Selectivity evaluation and human target binding in Alzheimer's disease brain extracts by Western blot analysis: The Western blot analysis described below was used to evaluate selective binding of monoclonal antibodies with affinity for the N-terminal neo-epitope of ApoE fragments […], starting at G200, without binding to ApoE full-length protein, in human brain extracts from an Alzheimer's disease patient. Fresh frozen brain tissue from the Alzheimer's disease patient was homogenized in RIPA 2% SDS extraction buffer, followed by centrifugation at 16000×g for 1 h. The subsequent supernatant was subjected to standard protein concentration determination.
# RIPA 2% SDS brain extract containing 80 μg total protein was mixed with 2×Laemmli sample buffer, boiled for 5 min at 95° C. and loaded onto SDS-PAGE gels (Bolt™ 12% Bis-Tris Plus 10 well, Thermo Fisher, cat. no. NW00120BOX). Gels were run for 30-40 min at 180 V, after which proteins were transferred from the gels to nitrocellulose membranes using the Trans-Blot® Turbo™ system (Bio-Rad). Membranes were blocked in Odyssey® blocking buffer for 1 h and incubated over night at room temperature with hybridoma supernatant diluted 1:1 in Odyssey® blocking buffer with 0.1% TWEEN®-20. Membranes were washed and incubated for 1 h at room temperature with the detection antibody anti-mouse-800CW (LI-COR, cat. no. 925-32210) diluted 1:25000 in Odyssey® blocking buffer with 0.1% TWEEN®-20. Membranes were washed and images acquired using Odyssey® FC (LI-COR).
row,Binder,binding result
1,B1,no binding (tested: supernatant diluted 1:1 (text))
2,B2,no binding (tested: supernatant diluted 1:1 (text))
3,B3,no binding (tested: supernatant diluted 1:1 (text))
4,B4,no binding (tested: supernatant diluted 1:1 (text))
5,B5,no binding (tested: supernatant diluted 1:1 (text))
6,B6,no binding (tested: supernatant diluted 1:1 (text))

# Target: T1, L198 N-terminal neo-epitope peptide …
# Experiment: direct ELISA, L198-BSA peptide coated at 1 µg/ml
# Protocol: (§1) Selectivity evaluation of purified monoclonal antibodies by direct ELISA: The direct ELISA described below was used to evaluate the binding selectivity of the purified monoclonal antibodies produced in Example 14.
# (§2) The screening was performed according to standard ELISA protocols. Briefly, 1 μg/ml solutions of BSA-conjugated neo-epitope peptides and negative control peptide, and 0.1 μM recombinant C-terminal ApoE fragment and full-length ApoE (Abcam, cat. no. ab50243) were prepared by dilution in PBS. 50 μl/well were added to an ELISA half-area 96 well microtiter plate, and the plate was sealed with adhesive sealer and incubated over night at 4° C. After discarding the solution, the plates were blocked with 150 μl/well of protein-free blocking solution (Pierce) for 1 h at room temperature with shake (600-900 rpm). The plates were washed four times with washing buffer containing 0.28 mM NaH₂PO₄, 2.5 mM Na₂HPO₄, 150 mM NaCl, 0.1% TWEEN®-20 and 0.0075% Kathon CG. Purified monoclonal antibodies of interest were 3-fold serially diluted with a starting dilution at 3 μg/ml (mixed 1:2 with dilution buffer (PBS with 0.1% BSA and 0.05% TWEEN®-20)). An anti-ApoE C-terminal antibody was used as a reference antibody (ApoE E-8 mouse monoclonal, Santa Cruz Biotechnology, cat. no. sc-393302). 50 μl/well were added into the ELISA plates and incubated for 2 h at room temperature with shake (600-900 rpm). The plates were washed four times as described previously. […] After another wash (as described previously), 50 μl/well of K-Blue® aqueous substrate (Neogen) were added, and the reaction was stopped after 5-15 min with 50 μl/well of 0.5 M […]. The optical density at 450 nm was read using an ELISA reader (Tecan).
row,Binder,EC50 [ng/mL]
1,B7,15.2
2,B8,3.2

# Target: T4, recombinant C-terminal ApoE fragment L198-HIS (ApoE-L198-H299-10xHIS) (human, UniProt P02649 216-317)
# T4 construct: also called L198-HIS fragment
# T4 sequence (P02649 other isoform, or with tags, fused parts or gaps limits assumed): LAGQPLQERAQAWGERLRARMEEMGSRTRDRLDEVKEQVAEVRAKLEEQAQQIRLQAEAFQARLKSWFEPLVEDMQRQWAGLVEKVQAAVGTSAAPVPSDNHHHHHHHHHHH
# Experiment: direct ELISA, L198-HIS coated at 0.1 µM
# Protocol: as §1, §2
row,Binder,EC50 [ng/mL]
1,B7,8.7
2,B8,3.6

# Target: T5, recombinant full-length ApoE4 (aa 1-299; SEQ ID NO:45; Abcam cat. no. ab50243) (human, UniProt P02649 19-317)
# T5 construct: Bought protein; also called recombinant ApoE4 full-length protein
# T5 sequence (P02649 19-317 C130R limits assumed): as the sequence (P02649 19-317) above, with C112R counted along it
# Experiment: direct ELISA, target coated at 1 ug/ml, supernatant in 3-fold dilutions from 1000 ng/ml, OD 450 nm
# Protocol: (§3) Selectivity evaluation by direct ELISA: The direct ELISA described below was used to evaluate the binding selectivity of generated monoclonal anti-ApoE antibodies with affinity for the N-terminal neo-epitope of C-terminal ApoE fragments starting at amino acid G200.
# (§4) The screening was performed according to standard ELISA protocols. Briefly, 1 μg/ml solutions of N-terminal neo-epitope peptide (SEQ ID NO:50) conjugated to BSA, the recombinant C-terminal ApoE fragment G200-HIS (SEQ ID NO:48) and recombinant full-length ApoE4 (SEQ ID NO:45; Abcam; cat. no. ab50243) were prepared by dilution in PBS. 50 μl/well were added to an ELISA half-area 96 well microtiter plate. Then, the plate was sealed with adhesive sealer and incubated over night at 4° C. The plates were blocked with 150 μl/well of protein-free blocking solution (Pierce) for 1 h at room temperature with shake (600-900 rpm). The plates were washed four times with washing buffer containing 0.28 mM NaH₂PO₄, 2.5 mM Na₂HPO₄, 150 mM NaCl, 0.1% TWEEN®-20 and 0.0075% Kathon CG. Antibodies of interest were serially diluted 3-fold with a starting dilution at 1 μg/ml (mixed 1:1 with dilution buffer: PBS with 0.1% BSA and 0.05% TWEEN®-20) and incubated for 2 h at room temperature. The plates were washed four times as before. […] After another wash (as above), 50 μl/well of K-Blue® aqueous substrate (Neogen) were added, and the reaction was stopped after 5-15 min with 50 μl/well of 0.5 M […]. The optical density at 450 nm was read using an ELISA reader (Tecan). The optical density was plotted against the antibody concentration to generate concentration-response curves (FIG. 14).
row,Binder,binding result
1,B1,no binding (tested: 1000 ng/ml)
2,B2,no binding (tested: 1000 ng/ml)
3,B3,no binding (tested: 1000 ng/ml)
4,B4,no binding (tested: 1000 ng/ml)
5,B5,no binding (tested: 1000 ng/ml)
6,B6,no binding (tested: 1000 ng/ml)

# Target: T6, recombinant C-terminal ApoE fragment G200-HIS (ApoE-G200-H299-10xHIS) (human, UniProt P02649 218-317)
# T6 construct: also called G200-HIS fragment
# T6 sequence (P02649 other isoform, or with tags, fused parts or gaps limits assumed): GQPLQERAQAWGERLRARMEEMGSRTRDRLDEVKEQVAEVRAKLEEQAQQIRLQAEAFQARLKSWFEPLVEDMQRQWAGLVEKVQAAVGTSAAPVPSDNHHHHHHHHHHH
# Experiment: as above
# Protocol: as §3, §4
row,Binder,EC50 (read off the curve) [ng/mL]
1,B1,~10
2,B3,~8
3,B4,~8
4,B5,~10
5,B6,~5

# Target: T2, G200 N-terminal neo-epitope peptide …
# Experiment: as above
# Protocol: as §3, §4
row,Binder,EC50 (read off the curve) [ng/mL]
1,B1,~10
2,B3,~20
